From publication PMC10514341, “Organisation of the orthobunyavirus tripodal spike and the structural changes induced by low pH and K^+ during entry” (Nature Communications, 2023)

B1: Bunyamwera virus (BUNV) glycoprotein Gc (natural protein)
chain: EEDCWKNEELKEDCVGPLIAPKDCTDKDHKTYLSEASLLATAKKITQVDAENVEILGKTMESAIRVIERQKTYHRMHLLEAVFLNKHCDYYKMFEHNSGYSQVKWRMMIKTQHFDICALQANSPFCAQCIADNSCAQGSWEFDTHMNSTYSSKVDNFKHDFSLFLRIFEAAFPGTAYVHLLTNIKEKKPYQAVSMIEKIKKKFPNNKLLIGYLDFGKYLLGLSHASTYELQQRQLDKLYQPTELTRSGGQQTSLANSVVGQATKECKKYKDVSCLSPRFGIPLEDLISCCDQPNYNIYKKPKKVYKAHDKEETWCINDQHCLVDFVPAEADTVEKLKPMKCWLVDPGKNDDVYSIAIKTCRVVDKGVCTVNSQKWNIIKCDSGPLYYSDHIPGEDTGNDIGHYCVSAGCKTDRYPINPDVVTDCVWEFTSRKSQYIGKISMQSLEDYEKALTDRLTHTLETYSFAPLENLPHIKPVYKYITAQGVENSDGIEGAFITASIPAAGGTSIGYNVRSKDGFPLLDLIVFVKSAVIKSTYNHIYDTGPTISINTKHDEHCTGQCPSNIEHEANWLTFSQERTSRWGCEEFGCLAVNTGCVFGSCQDVIRPETKVYRKAVDEVVILTVCITYPGHTFCTEINAIEPKITEEIELQFKTVDTKTLPYIVAVNNHKLYSGQINDLGTFGQMCGNVQKTNSSILGTGTPKFDYTCHGASRKDIIVRRCYNNNFDSCKLLKEETQLIFNDDHDTITVYNTNHLIGELAIKLILGDIQYKLFTETLDLQIDAKCVGCPDCFESYSCNFQIVSNIDTICSLEGPCDTFHNRISIKAMQQNYAVKLSCQKDPRPSGTFKICNREYTVVFHTVAKDDKIEINVGDQTSFIKEKDDRCKTWLCRVRDEGISVIFEPIKAFFGSYFSIFFYIIVVVVVGFLIIYIFMPMFMKLKEVLKANEKLYLQEIKQK
modifications: N-linked glycan at N624
notes: Glycoprotein Gc of Bunyamwera virus, cut from the M segment polyprotein (Gn-NSm-Gc); ectodomain 478-1382; head, stalk and floor (fusion domain) regions; membrane-anchored in the virion envelope; Native Gc in the envelope of purified virions; also called BUNV Gc
B2: Bunyamwera virus (BUNV) glycoprotein Gn (natural protein, UniProt P04505 17-302, looked up)
chain: SPVITRCFHGGQLIAERKSQTSISEFCIKDDVSMLKSEIVYTKNDTGIFGHSKVFRHWTITDWKACNPVVTAGGSINVIEVDKNLNLVTRNYVCTGDCTITVDRKNAQIIFQTDKLNHFEVTGTTISTGWFKSKASVTLDRTCEHIKVSCGKKTLQFHACFKQHMSCVRFLHRSILPGSMAISICQNIELIIITILALCIFIIMIILTKTYICYVLIPVFMPIAFAYGWAYNRSCKKCTCCGLAYHPFTNCGSYCVCGSKFETSDRMRMHRESGLCQGFKSLRVAR
modifications: N-linked glycan at N60
notes: Glycoprotein Gn of Bunyamwera virus, cut from the M segment polyprotein (Gn-NSm-Gc); ectodomain 17-205; membrane-anchored in the virion envelope; Native Gn in the envelope of purified virions; also called BUNV Gn

Target: the molecule itself
Assay: cryo-EM structure; cryo-electron tomography and subtomogram averaging (PEET, C3 symmetry) of glycoprotein spikes on purified BUNV virions, pH 7.3/no K+, 2 hr at 37 °C; tripod average ~16 Å, floor average ~13 Å (GS-FSC); X-ray head/stalk structures and an AlphaFold Gn-Gc model fitted into the maps

| Protein | stoichiometry N |
| --- | --- |
| B1 | 3 |
| B2 | 3 |
